Data on five molecules can be found in article PMC8467012, “Targeting ErbB3 Receptor in Cancer with Inhibitory Antibodies from Llama” (Biomedicines, 2021).

First the molecules themselves.
B1: BCD090-M2 (VHH)
VHH: QVQLVQSGGGLVQAGGSLRLSCAFSGRTFSMYTMGWFRQAPGKEREFVAANRGRGLSPDIADSVNGRFTISRDNAKNTLYLQMDSLKPEDTAVYYCAADLQYGSSWPQRSSAEYDYWGQGTTVTVSS
notes: llama VHH from a phage display library; the product left after TEV cleavage; no PDB id is printed; also called anti-ErbB3 single-domain antibody BCD090-M2; source: E. coli SHuffle T7 express, cytoplasmic, purified (IMAC, TEV cleavage, negative IMAC, ion exchange); not shown: His tag, N-terminal, cleaved; SUMO, N-terminal, cleaved
B2: BCD090-M456 (VHH)
VHH: QVQLVQSGGGLVQSGGSLKLSCVASGGPFSTYLMGWFRQAPGKEREFVTAISRSGLNTYYADSVKGRFTISRDNAKNTVYLQMHSLKPEDTAVYHCAARRGGTNSGSYYFDRPAVSDEYDLWGQGTLVTVSS
notes: llama VHH from a phage display library; the product left after TEV cleavage; Lacks the Cys22-Cys92 disulfide bond (cysteines reduced); CDR H3 of 23 residues; also called anti-ErbB3 single-domain antibody BCD090-M456; source: E. coli SHuffle T7 express or BL21(DE3), cytoplasmic, purified (IMAC, TEV cleavage, negative IMAC, ion exchange); not shown: His tag, N-terminal, cleaved; SUMO, N-terminal, …
B3: BCD090-P1 (VHH)
VHH: EVQLVQSGGGLVQPGGSLRLSCAASGRTSSKYAMGWFRQAPGKGTEFVATISWSDGSTYYADSVEGRFTISRDNAKNTVYLQMNSLKPEDTAVYYCAAAVDVLAGTFEYEYDYWGQGTLVTVSS
notes: llama VHH from a phage display library; the product left after TEV cleavage; Monomer by SEC; One disulfide bond Cys22-Cys92; also called anti-ErbB3 single-domain antibody BCD090-P1; source: E. coli SHuffle T7 express or BL21(DE3), cytoplasmic, purified (IMAC, TEV cleavage, negative IMAC, ion exchange); not shown: His tag, N-terminal, cleaved; SUMO, N-terminal, cleaved
B4: pelB-BCD090-P1-His5 (VHH)
VHH: B3 VHH
notes: as the VHH of m1 (BCD090-P1), with the uncleaved pelB leader and a histidine tag; also called BCD090-P1 purified from the periplasm; periplasmically expressed BCD090-P1; source: E. coli, periplasmic expression (pET22b), purified; not shown: pelB leader (uncleaved), N-terminal, kept; His5, C-terminal, kept
B5: BCD090-P1 conjugated with Cy5 or AF488 (VHH)
VHH: B3 VHH
notes: as the VHH of m1 (BCD090-P1); also called labeled BCD090-P1; source: E. coli, purified, then labelled with sulfo-Cy5 or AF488 NHS ester

One test deals with T1, human ErbB3 extracellular subdomain 3 (ECD^III, residues 329-532) (Homo sapiens, UniProt P21860).
T1 construct: ErbB3 (HER3) receptor, human, extracellular subdomain 3, residues 329-532; secreted with the Igκ leader of the pEE vector; Glycosylated, MW ~25 kDa; also called ErbB3 ECD^III; source: CHO-T-HC cells, transiently transfected, secreted, purified (CaptureSelect C-tag resin)
T1 sequence (P21860 329-532): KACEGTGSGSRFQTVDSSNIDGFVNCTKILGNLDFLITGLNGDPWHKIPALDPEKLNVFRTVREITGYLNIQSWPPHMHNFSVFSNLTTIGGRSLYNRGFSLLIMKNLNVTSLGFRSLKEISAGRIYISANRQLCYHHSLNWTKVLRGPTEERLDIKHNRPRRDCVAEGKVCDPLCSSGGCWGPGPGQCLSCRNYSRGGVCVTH
The test can be described thus: SPR; ErbB3 ECD^III immobilised on a CM5 chip by amine coupling; Biacore T200, 37 °C; HBS with 50 µg/mL BSA. The note with it: both partners purified. (In general: In SPR one partner is held on a chip, and binding of the other changes the refractive index at the surface.)
With B1, the binding result is “no binding”.

B2: the binding result is reported as “no binding”.

In the case of B3, the binding result is on record as “binds”.

In the next test the target is T2, human ErbB3 extracellular domain (ECD, residues 21-643) (Homo sapiens, UniProt P21860).
T2 construct: ErbB3 (HER3) receptor, human, extracellular domain, residues 21-643; secreted with the Igκ leader of the pEE vector; Glycosylated, MW 75 kDa; also called ErbB3 ECD; HER3 extracellular domain; source: CHO-T-HC cells, transiently transfected, secreted, purified (IMAC on HisTrap, SEC on Superdex 200 pg)
T2 sequence (P21860 21-643 R488S): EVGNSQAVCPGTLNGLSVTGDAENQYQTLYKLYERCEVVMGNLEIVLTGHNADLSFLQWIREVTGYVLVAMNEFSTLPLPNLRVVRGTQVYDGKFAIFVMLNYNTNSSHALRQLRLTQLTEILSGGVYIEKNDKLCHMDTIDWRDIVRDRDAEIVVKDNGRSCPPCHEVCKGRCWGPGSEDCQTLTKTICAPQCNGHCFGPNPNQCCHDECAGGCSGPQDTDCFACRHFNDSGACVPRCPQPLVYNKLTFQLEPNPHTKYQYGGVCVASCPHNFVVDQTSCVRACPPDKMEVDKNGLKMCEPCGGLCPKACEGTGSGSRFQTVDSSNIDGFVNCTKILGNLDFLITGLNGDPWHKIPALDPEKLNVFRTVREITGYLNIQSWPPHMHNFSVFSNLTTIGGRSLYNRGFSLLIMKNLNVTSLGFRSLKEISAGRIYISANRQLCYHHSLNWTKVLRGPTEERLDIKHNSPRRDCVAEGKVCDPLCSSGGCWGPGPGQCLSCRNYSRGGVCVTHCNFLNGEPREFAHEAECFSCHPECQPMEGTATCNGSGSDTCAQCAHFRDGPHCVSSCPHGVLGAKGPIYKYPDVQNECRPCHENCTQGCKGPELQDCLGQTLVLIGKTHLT
Put plainly: SPR; ErbB3 ECD immobilised on a CM5 chip by amine coupling; Biacore T200, 37 °C; HBS with 50 µg/mL BSA; equilibrium response read 5 s before injection end, fitted by the Hill equation; geometric means of two experiments. The note with it: both partners purified.
For orientation: Kd means the equilibrium constant for the complex coming apart. Read a high Kd as lower affinity. B1 yielded a Kd of 15 ± 1 nM.

As to B2, the Kd worked out at 8600 ± 800 nM.

As to B3, the Kd came out at 1.61 ± 0.06 nM.

Consider B4, for which binding was put at a Kd of 6.5 ± 0.9 nM.

The target in a further test is T3, extracellular domain of ErbB2 (Homo sapiens (assumed), UniProt P04626).
T3 construct: ErbB2 (HER2) receptor, extracellular domain; also called ErbB2 ECD
The test can be described thus: SPR; test of antibody specificity against the extracellular domain of ErbB2 (Figure S5); Biacore T200, CM5 chip, 37 °C. The note with it: both partners purified.
With B1, the binding result was “no binding”.

For the molecule B3, the binding result is “no binding”.

The target of the next test is T4, ErbB3 receptor on cancer cells (Homo sapiens, UniProt P21860).
T4 construct: ErbB3 (HER3) receptor, endogenous on human cancer cell lines; also called HER3; source: endogenous, on live MCF-7, SK-BR-3, BT-474 and Hep G2 cells
T4 sequence (P21860 20-1342): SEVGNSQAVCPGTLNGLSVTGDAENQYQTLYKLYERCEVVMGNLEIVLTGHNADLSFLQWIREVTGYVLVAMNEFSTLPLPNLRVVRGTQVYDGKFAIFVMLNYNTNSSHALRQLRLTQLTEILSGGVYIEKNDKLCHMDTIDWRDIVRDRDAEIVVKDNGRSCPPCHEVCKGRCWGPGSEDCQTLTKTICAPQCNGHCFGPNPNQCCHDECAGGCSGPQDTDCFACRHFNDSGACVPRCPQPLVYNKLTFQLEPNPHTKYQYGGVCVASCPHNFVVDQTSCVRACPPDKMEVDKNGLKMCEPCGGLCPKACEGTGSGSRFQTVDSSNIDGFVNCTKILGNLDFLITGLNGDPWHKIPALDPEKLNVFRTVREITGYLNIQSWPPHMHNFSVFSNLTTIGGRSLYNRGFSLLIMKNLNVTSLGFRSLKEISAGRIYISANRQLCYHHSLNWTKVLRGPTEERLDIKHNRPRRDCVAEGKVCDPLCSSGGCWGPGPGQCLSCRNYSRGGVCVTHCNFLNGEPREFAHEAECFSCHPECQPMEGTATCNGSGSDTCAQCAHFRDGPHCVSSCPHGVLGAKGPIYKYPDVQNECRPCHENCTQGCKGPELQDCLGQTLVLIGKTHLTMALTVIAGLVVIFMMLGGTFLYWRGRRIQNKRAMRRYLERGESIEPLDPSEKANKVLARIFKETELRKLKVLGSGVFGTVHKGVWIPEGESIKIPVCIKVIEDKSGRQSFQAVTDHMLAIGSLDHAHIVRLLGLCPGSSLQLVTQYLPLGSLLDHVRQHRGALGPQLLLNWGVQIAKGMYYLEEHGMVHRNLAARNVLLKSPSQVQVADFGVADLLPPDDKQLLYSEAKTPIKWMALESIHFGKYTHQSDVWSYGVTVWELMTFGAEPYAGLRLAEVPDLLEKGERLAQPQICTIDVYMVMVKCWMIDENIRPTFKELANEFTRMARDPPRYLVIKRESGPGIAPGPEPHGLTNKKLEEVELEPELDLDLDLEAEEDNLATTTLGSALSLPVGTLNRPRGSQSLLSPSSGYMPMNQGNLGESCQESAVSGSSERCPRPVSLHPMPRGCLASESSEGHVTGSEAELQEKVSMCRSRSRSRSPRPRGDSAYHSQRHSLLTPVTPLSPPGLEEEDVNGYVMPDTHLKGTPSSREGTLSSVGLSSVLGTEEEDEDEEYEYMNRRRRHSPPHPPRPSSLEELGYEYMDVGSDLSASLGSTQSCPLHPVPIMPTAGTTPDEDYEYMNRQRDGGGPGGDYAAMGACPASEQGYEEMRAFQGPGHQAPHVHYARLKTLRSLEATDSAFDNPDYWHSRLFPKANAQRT
The test can be described thus: immunostaining of cells or tissue; live cells stained 30 min in PBS with 5 µg/mL directly labelled antibody and Hoechst 33342; confocal microscopy; MCF-7, SK-BR-3, BT-474, Hep G2; K562 as negative control. The note with it: one partner purified.
As for B5, the binding result is reported as “binds”.

The target in a further test is T2, human ErbB3 extracellular domain (ECD, …). The test can be described thus: SPR; ErbB3 ECD immobilised on a CM5 chip by amine coupling; Biacore T200, 37 °C; antibodies in HBS (10 mM HEPES pH 7.4, 150 mM NaCl) with 50 µg/mL BSA; sensograms fitted globally by a 1:1 model at three concentrations near KD; geometric means of two experiments. The conditions noted are these: both partners purified.
The term koff denotes the first-order rate constant of dissociation. A low value points to a long-lived complex. The kon is a measure of how fast the partners come together. Low readings indicate slow association, high ones fast association. As for B1, binding was put at a Kd of 16.5 ± 2 nM, the koff was 0.0036 s⁻¹ and the kon turned out to be 220000 M⁻¹ s⁻¹.

Take B2: the Kd turned out to be 3100 ± 200 nM, the koff was 0.0022 s⁻¹ and the kon is 720 M⁻¹ s⁻¹.

As for B3, binding was characterised by a dissociation constant (Kd) of 1.6 ± 0.2 nM, the koff stood at 0.003 s⁻¹ and the kon is 1.9e+06 M⁻¹ s⁻¹.

B4 showed a Kd of 5.1 ± 0.9 nM, a koff of 0.0044 s⁻¹ and a kon of 870000 M⁻¹ s⁻¹.
